In the supplement of paper PMC10567573:
± gives the standard deviation.

Test: protein stability index of a GFP-peptide fusion (GPS, HEK-293T) (PSI 1-6); higher = more stable
[1] = treatment: DMSO, c terminus: a fixed tail appended
[2] = treatment: MLN4924 1 uM, 8 h, c terminus: a fixed tail appended
[3] = treatment: DMSO, c terminus: native
[4] = treatment: MLN4924 1 uM, 8 h, c terminus: native
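Further: 24-mer peptide tiles fused after GFP, lentivirally expressed, FACS-sorted into six equal bins by GFP/DsRed ratio, decoded by Illumina sequencing, PSI is the read-weighted mean bin number.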

Sequence | protein stability index [1] | protein stability index [2] | protein stability index [3] | protein stability index [4]
KQQLVDAFLKLAKQRSVCTWGKNK [FAN1] | 2.31 ± 0.21 | 2.25 ± 0.16 |  | 
FDRTEWVQIRRLEAAGESLEEEIR [ZC2HC1C] | 4.02 ± 0.08 | 4.55 ± 0.1 |  | 
MITVPIGLYFTTKSYIFEGALGMS [VMA21] | 2.49 ± 0.7 | 2.89 ± 0.43 |  | 
PVAMRVAKLAINQGMEVDLVTGLA [AUH] | 2.65 ± 0.29 | 2.92 ± 0.5 |  | 
CRGKKPSRIYGQAMAIINGSLYVF [KLHDC10] | 3.22 ± 0.66 | 2.51 ± 0.73 |  | 
QKQRLREILEQQQQERNDTNFHGV [ZNF277] | 4.53 ± 0.3 | 4.59 ± 0.23 |  | 
NGINLFDTAEVYAAGKAEVVLGNI [KCNAB2] | 2.89 ± 0.3 | 3 ± 0.3 |  | 
PTLWTEQVKSRQNKTNKNSVSSCD [SMOC2] | 4.81 ± 0.28 | 4.84 ± 0.12 |  | 
AKILPSPVQGSSEDNLSLVCLPRS [DRICH1] | 3.94 ± 0.18 | 4.04 ± 0.18 |  | 
APSATIHQGEEEGPLDIWAVVKPG [FBXO34] | 4.71 ± 0.27 | 4.79 ± 0.13 |  | 
VDRTHALMKKIGQCPMRVQKEVAG [CRYL1] | 3.45 ± 0.36 | 3.65 ± 0.35 |  | 
MSMNNSKQLVSPAAALLSNTTCQT [PTGFR] | 3.79 ± 0.21 | 3.99 ± 0.12 |  | 
PPVTDLGELRRRPGDMKTKMELLI [CPOX] | 3.2 ± 0.36 | 3.03 ± 0.3 |  | 
YKFDPKTKRILTLQKANSWFNCRK [MMP1] | 2.67 ± 0.27 | 2.54 ± 0.28 |  | 
ELEGDVAEPLAGPACVTVILPSCV [KLHL14] | 3.32 ± 0.54 | 3.14 ± 0.14 |  | 
ALGDAFADLSQKSPELQEEFGYNA [ARFIP2] | 4.6 ± 0.17 | 4.63 ± 0.22 |  | 
TTEKQRLVKKLQDSVLERWVNDPQ [GOLPH3L] | 3.71 ± 0.25 | 4.05 ± 0.076 |  | 
MISAAQLLDELMGRDRNLAPDEKR [LUC7L3] | 3.87 ± 0.19 | 4.11 ± 0.21 |  | 
YRYCCKLNKKLKSYSLSRKKIVHY [CDC14A] | 2.27 ± 0.38 | 2.25 ± 0.53 |  | 
ADVNAQSSTGNTALTYACAGGYVD [ANKRD17] | 4.21 ± 0.39 | 4.49 ± 0.16 |  | 
FSQKSCLVAHQRYHTGKTPFVCPE [ZNF649] | 2.58 ± 0.13 | 2.6 ± 0.23 |  | 
EVSADDETPNPPQSAQIACSSPSV [MAGEA10] | 5.57 ± 0.28 | 5.42 ± 0.21 |  | 
QIKCIELKSELGRKWHKASNYIFV [P2RY14] | 2.72 ± 0.93 | 2.67 ± 0.47 |  | 

Sequence | protein stability index [1] | protein stability index [2] | protein stability index [3] | protein stability index [4]
PVSGKAVFMEFGPPNQQMSPSPMS [DLX1] | 3.5 ± 0.26 | 3.55 ± 0.41 |  | 
FAALRASLVAPLLLELAGEVTDTG [MYORG] | 2.13 ± 0.39 | 2.36 ± 0.4 |  | 
TPQPTALTFAKSSWARQESLQERK [AUP1] | 4.43 ± 0.14 | 4.48 ± 0.19 |  | 
PPSALDQLSRLNITYPMLFKLTNK [UFD1] | 2.48 ± 0.27 | 2.96 ± 0.095 |  | 
SCHGYTLPGACNIPANVSNCNWFC [KRT33B] | 2.53 ± 0.52 | 2.42 ± 0.5 |  | 
ADRQCQLTFGPDSRHCPQLPPPCA [ADAMTS4] | 4.08 ± 0.16 | 4.08 ± 0.081 |  | 
EETVTQDCLQLIADSETPTIQKGS [TNFSF13B] | 5.53 ± 0.36 | 5.42 ± 0.14 |  | 
GQFYLDLYPREGKYNHAACFGLQP [NLN] | 1.91 ± 0.16 | 2.09 ± 0.31 |  | 
PPRTIKRTRRRLSRNRDPGRLILS [PWWP2B] | 4.37 ± 0.27 | 4.52 ± 0.35 |  | 
IVIGILSAYISNYAFANVFHGWKY [SLC2A12] | 3.01 ± 0.51 | 3.25 ± 0.68 |  | 
WALLCLGLLLPGGGAAWSIGAAPF [EMID1] | 3.54 ± 0.26 | 3.22 ± 0.19 |  | 
KLYTGPGLAIHCMQVHKETIDAVP [ZNF207] | 2.5 ± 0.36 | 2.61 ± 0.3 |  | 
RREVAKTVFCLVVIFALCWFPLHL [EDNRA] | 2.93 ± 0.19 | 2.53 ± 0.27 |  | 
LRVEQKDFPAHRIVLAACSDYFCA [KLHL12] | 2 ± 0.44 | 2.07 ± 0.29 |  | 
LICFCRESRYMDQWVPVINLPER [GADD45A] |  |  | 2.98 ± 1.1 | 2.87 ± 0.84
AKDMKKAVAHMKYMGKGSMTGLAL [MATN2] |  | 2.37 ± 0.3 |  | 
LLCLFFGIPWEAGARQISYSIPEE [PCDHGA10] | 1.94 ± 0.035 | 2.45 ± 0.41 |  | 
KGAVNLHMEEEVEDFLLKKPIVPT [CDC25A] | 4.14 ± 0.31 | 4.13 ± 0.2 |  | 
LSEGSSNEDEDLGPCEGPSKEDKD [SPANXN3] | 5.71 ± 0.31 | 5.37 ± 0.41 |  | 
RSSVSRVFDCLKDGMRNKETLEGR [MED27] | 4.27 ± 0.34 | 4.38 ± 0.47 |  | 
LAGLSVGRSSLTACSLPLCACLLG [PXN] | 2.33 ± 0.39 | 2.33 ± 0.22 |  | 
LVEHYKKAPIFTSEHGEKLYLVRA [NCK2] | 2.28 ± 0.21 | 2.42 ± 0.24 |  | 
DALDSEGRDSEGPAEGEGRLGRCM [KCNG1] | 5.34 ± 0.28 | 5.53 ± 0.21 |  | 

Sequence | protein stability index [1] | protein stability index [2] | protein stability index [3] | protein stability index [4]
VLFLDHVMYTIHMGCHGFRDPFEC [IKZF1] | 3 ± 0.26 | 2.96 ± 0.49 |  | 
RFLVGMMNGGMSLVAFVLLNECVG [SLC22A15] | 3.25 ± 0.35 | 2.9 ± 0.38 |  | 
ALSPKTTITMAHLLAAREDLSKII [FAM98B] | 2.29 ± 0.27 | 2.55 ± 0.065 |  | 
RLVNEYVELVNAACNFEPHESFFS [ZER1] | 2.34 ± 0.4 | 2.1 ± 0.48 |  | 
SGSQRHMVGQKDSVILSVKFSPFG [TLE6] | 2.2 ± 0.27 | 2.49 ± 0.22 |  | 
LKKMGKRLDYLNLKGARLTVEQGC [FBXO39] | 2.62 ± 0.34 | 2.67 ± 0.28 |  | 
PILQEGMDEEKLKQLNCVEISALN [DLC1] | 5.08 ± 0.15 | 4.87 ± 0.15 |  | 
ELQSQLSMKASLEGNLAETENRYC [KRT17] | 3.93 ± 0.25 | 4.18 ± 0.14 |  | 
KSPEMPVILEVSLEGSHDTANCEA [RTP4] | 4.85 ± 0.11 | 5.07 ± 0.34 |  | 
RTRPRKPIRCGEVLFAVGGWCSGD [KLHL20] | 2.39 ± 0.28 | 2.17 ± 0.33 |  | 
ATCRLCGEQVGRGPGFHAGTSALW [ZBED3] | 2.2 ± 0.57 | 2.39 ± 0.12 |  | 
NRILAERIAKEIQVIPLQRDDED [IMPA1] |  |  | 3.47 ± 0.1 | 3.65 ± 0.12
LLLGSPHPAATALHAELCQAGSSQ [LPCAT4] | 3.01 ± 0.42 | 3.18 ± 0.21 |  | 
SSHHSHSYIGLPYADHNYGARPPP [KMT2E] | 3.46 ± 0.16 | 3.7 ± 0.27 |  | 
PCSPDSSSVCVQGRCIHAGCDRII [ADAMTS4] | 3.84 ± 0.58 | 3.67 ± 0.25 |  | 
IGDFGISKILSSKSKAYTVVGTPC [NEK8] | 2.35 ± 0.12 | 2.47 ± 0.34 |  | 
DINSVRYYPSGDAFASGSDDATCR [GNB5] | 4.03 ± 0.047 | 4.22 ± 0.16 |  | 
AREYYSEADASHCIQQILEAVLHC [CAMK2A] | 2.48 ± 0.26 | 2.55 ± 0.24 |  | 
ALKERADSLAKEIQYLKDLIEEVR [ATF4] | 4.49 ± 0.36 | 4.59 ± 0.057 |  | 
EKALASILLQDHIRDLDVVVVSVA [ATL3] | 2.52 ± 0.65 | 2.21 ± 0.53 |  | 
QYLAERYKVNTPMLQSFINYCLLF [SLC35F2] | 2.58 ± 0.6 | 2.64 ± 0.53 |  | 
FKEQLQALIPYVLNPSKLMEKEIN [ATL3] | 1.91 ± 0.28 | 2.22 ± 0.24 |  | 
HSPFSSESRALSTSSNLGSQYQCE [TBX5] | 4.4 ± 0.35 | 4.53 ± 0.22 |  | 

Sequence | protein stability index [1] | protein stability index [2] | protein stability index [3] | protein stability index [4]
NLSKSRKILRSMSRKVTTNKLLLS [VTI1B] | 2.85 ± 0.35 | 2.92 ± 0.29 |  | 
FSASERLSLKRELSWYRGRRPRTA [HESX1] | 2.7 ± 0.28 | 3.22 ± 0.32 |  | 
MLKEEHQIILENQKNFGLYVQEKR [RAD54B] | 2.99 ± 0.24 | 3.62 ± 0.29 |  | 
EGGLYFERRPVAQSTDGARGKRGY [SPSB2] | 4.55 ± 0.33 | 5.03 ± 0.11 |  | 
ANGEIQRHAEQQALRLEVRAGPDS [CARM1] | 4.56 ± 0.67 | 4.74 ± 0.19 |  | 
VHRKSCSTGEAGTDGDHNVYPRPP [ZC2HC1C] | 4.29 ± 0.33 | 4.45 ± 0.37 |  | 
PLGAGNLGPELIKESNANPIFMRK [DPCD] | 4.34 ± 0.27 | 4.54 ± 0.23 |  | 
DLNIQLLKDGYRLDEIPDDEDLDL [FAM219A] | 5.17 ± 0.16 | 5.16 ± 0.079 |  | 
NHILECEFYLLELMDCCLIVYHPY [CCNC] | 3.12 ± 1 | 2.78 ± 0.95 |  | 
LRTRGRTRGWVQTLARMSRRTRGP [C6orf223] | 3.6 ± 0.23 | 3.97 ± 0.27 |  | 
QPVDAIKLNLPDYHKIIKNPMDMG [BRD3] | 3.12 ± 0.35 | 2.92 ± 0.23 |  | 
GGKNCKKPAEYGYVSLGRLGAAKG [CEBPB] | 3.64 ± 0.27 | 3.52 ± 0.54 |  | 
LSTAASLGPSGLQNHGQHLILSRE [LCOR] | 3.99 ± 0.38 | 3.96 ± 0.16 |  | 
KGCSLEQISMELAKVNYVKNNICF [SLC2A12] | 2.22 ± 0.35 | 2.27 ± 0.28 |  | 
FVEDQAVVETVFFLTSRTRALLRR [ZSWIM9] | 2.21 ± 0.25 | 2.22 ± 0.14 |  | 
LISQCGKPVVNVSYRPAYDQGGPV [DUSP5] | 2.61 ± 0.38 | 2.6 ± 0.42 |  | 
KKYRLTEHERAHRGEKPHGCSLCG [ZNF649] | 3.72 ± 0.37 | 3.85 ± 0.36 |  | 
VKLPLPAERVTLADFKGVLQRPSY [DVL3] | 2.5 ± 0.19 | 2.73 ± 0.36 |  | 
QPRDEEEAELELLRQFDLAWQYGP [POLD4] | 4.87 ± 0.34 | 4.54 ± 0.27 |  | 
VRKPAEAERYKLERLAEAEKSQLI [FLOT1] | 4.46 ± 0.26 | 4.49 ± 0.14 |  | 
